Laboratory results taken from PMC2172055.

Assays:
[1] = target: Sec61α (canine (endogenous in MDCK)) (UniProt P38377); experiment: FRET or BRET
[2] = target: Sec61β (canine (endogenous in MDCK)) (UniProt P60467); experiment: FRET or BRET
Sequence of Sec61β (canine (endogenous in MDCK)) (P60467 whole entry): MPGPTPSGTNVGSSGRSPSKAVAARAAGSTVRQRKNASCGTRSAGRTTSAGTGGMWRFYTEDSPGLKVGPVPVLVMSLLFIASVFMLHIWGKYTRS

Sequence of Sec61β (P60467 whole entry): as above
Sequence of Sec61α (canine (endogenous in MDCK)) (P38377 whole entry): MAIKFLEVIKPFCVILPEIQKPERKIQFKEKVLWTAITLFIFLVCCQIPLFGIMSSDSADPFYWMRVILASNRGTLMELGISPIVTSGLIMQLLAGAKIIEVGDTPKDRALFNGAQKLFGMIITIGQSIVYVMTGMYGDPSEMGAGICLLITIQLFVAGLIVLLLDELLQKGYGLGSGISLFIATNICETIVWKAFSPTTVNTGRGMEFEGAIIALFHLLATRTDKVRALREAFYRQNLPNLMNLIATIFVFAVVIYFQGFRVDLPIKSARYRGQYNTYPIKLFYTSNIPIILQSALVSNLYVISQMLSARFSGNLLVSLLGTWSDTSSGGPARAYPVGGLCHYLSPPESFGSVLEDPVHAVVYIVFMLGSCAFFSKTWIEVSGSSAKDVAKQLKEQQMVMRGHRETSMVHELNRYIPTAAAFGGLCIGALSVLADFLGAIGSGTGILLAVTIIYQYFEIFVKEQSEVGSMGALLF
Sequence of Sec61α (P38377 whole entry): as above

| FRET efficiency (pactamycin-treated cells) [1] [%] | FRET efficiency (puromycin-treated cells) [1] [%] | FRET efficiency (untreated cells) [1] [%] | FRET efficiency (pactamycin-treated cells) [2] [%] | FRET efficiency (puromycin-treated cells) [2] [%] | FRET efficiency (untreated cells) [2] [%] | FRET efficiency (untreated cells, Fig. 3 B) [2] [%] | FRET efficiency (untreated cells, Fig. 3 A, donor to acceptor antibody 1:8) [2] [%] | stoichiometry N [2] | Substance |
| --- | --- | --- | --- | --- | --- | --- | --- | --- | --- |
| 35.5 | 33.6 | 38.3 | 28 | 27.9 | 26.4 | 30 | – | – | Sec61α (from UniProt P38377 1-476) (natural protein) |
| 46.8 | 46.1 | 41.8 | 23.9 | 24.8 | 21.4 | – | 17 | > 2 | Sec61β (from UniProt P60467 1-96) (natural protein) |
